Target: T1, (NPNA)2 peptide (Plasmodium falciparum)
T1 chain: NPNANPNA
Test: ITC

binding result: binds
B1: Fab311 inter-Fab contact residue reverted (Fab311R) (Fab, V domains shown)
VH: QVQLVESGGGVVPPGRSLRLSCATSGFTFSSYGMHWVRQAPGKGLEWVAIIWYDGSNKFYAASVKGRFTISRDNSKNTLYLQMNSLRVEDTAVYYCARAAYYDTSGYGDYWGQGTLVTVSS
VL: QSVLTQPPSVSGAPGQTVTISCTGGSSNIGAGYDVHWYQQLPGTAPKLLIYGNINRPSGVPDRFSGSKSGTSASLAITGLQAEDEADYYCQSYDSSLSGSWVFGGGTKLTVL
